Results reported in article PMC11446282.
Changes are numbered by the printed parent chain.

B1: AMOTL2 H13: AMOTL2, H13 to alanine (protein, UniProt Q9Y2J4 1-779, looked up, variant H13A)
Angiomotin-like protein 2: MRTLEDSSGTVLARLIQEQLRYGNLTETRTLLAIQQQALRGGAGTGGTGSPQASLEILAPEDSQVLQQATRQEPQGQEHQGGENHLAENTLYRLCPQPSKGEELPTYEEAKAHSQYYAAQQAGTRPHAGDRDPRGAPGGSRRQDEALRELRHGHVRSLSERLLQLSLERNGARAPSHMSSSHSFPQLARNQQGPPLRGPPAEGPESRGPPPQYPHVVLAHETTTAVTDPRYRARGSPHFQHAEVRILQAQVPPVFLQQQQQYQYLQQSQEHPPPPHPAALGHGPLSSLSPPAVEGPVSAQASSATSGSAHLAQMEAVLRENARLQRDNERLQRELESSAEKAGRIEKLESEIQRLSEAHESLTRASSKREALEKTMRNKMDSEMRRLQDFNRDLRERLESANRRLASKTQEAQAGSQDMVAKLLAQSYEQQQEQEKLEREMALLRGAIEDQRRRAELLEQALGNAQGRAARAEEELRKKQAYVEKVERLQQALGQLQAACEKREQLELRLRTRLEQELKALRAQQRQAGAPGGSSGSGGSPELSALRLSEQLREKEEQILALEADMTKWEQKYLEERAMRQFAMDAAATAAAQRDTTLIRHSPQPSPSSSFNEGLLTGGHRHQEMESRLKVLHAQILEKDAVIKVLQQRSRRDPGKAIQGSLRPAKSVPSVFAAAAAGTQGWQGLSSSERQTADAPARLTTDRAPTEEPVVTAPPAAHAKHGSRDGSTQTEGPPDSTSTCLPPEPDSLLGCSSSQRAASLDSVATSRVQDLSDMVEILI
B2: EYA3 T88: EYA3, T88 to alanine (protein, UniProt Q99504 1-573, looked up, variant T88A)
Protein phosphatase EYA3: MEEEQDLPEQPVKKAKMQESGEQTISQVSNPDVSDQKPETSSLASNLPMSEEIMTCTDYIPRSSNDYTSQMYSAKPYAHILSVPVSEAAYPGQTQYQTLQQTQPYAVYPQATQTYGLPPFGALWPGMKPESGLIQTPSPSQHSVLTCTTGLTTSQPSPAHYSYPIQASSTNASLISTSSTIANIPAAAVASISNQDYPTYTILGQNQYQACYPSSSFGVTGQTNSDAESTTLAATTYQSEKPSVMAPAPAAQRLSSGDPSTSPSLSQTTPSKDTDDQSRKNMTSKNRGKRKADATSSQDSELERVFLWDLDETIIIFHSLLTGSYAQKYGKDPTVVIGSGLTMEEMIFEVADTHLFFNDLEECDQVHVEDVASDDNGQDLSNYSFSTDGFSGSGGSGSHGSSVGVQGGVDWMRKLAFRYRKVREIYDKHKSNVGGLLSPQRKEALQRLRAEIEVLTDSWLGTALKSLLLIQSRKNCVNVLITTTQLVPALAKVLLYGLGEIFPIENIYSATKIGKESCFERIVSRFGKKVTYVVIGDGRDEEIAAKQHNMPFWRITNHGDLVSLHQALELDFL
B3: EYA3 I80: EYA3, I80 to alanine (protein, UniProt Q99504 1-573, looked up, variant I80A)
Protein phosphatase EYA3: B2 Protein phosphatase EYA3 with I80A, A88T
B4: EYA3 H79: EYA3, H79 to alanine (protein, UniProt Q99504 1-573, looked up, variant H79A)
Protein phosphatase EYA3: B2 Protein phosphatase EYA3 with H79A, A88T
B5: EYA3 Y90: EYA3, Y90 to alanine (protein, UniProt Q99504 1-573, looked up, variant Y90A)
Protein phosphatase EYA3: B2 Protein phosphatase EYA3 with A88T, Y90A
B6: EYA3 Y77: EYA3, Y77 to alanine (protein, UniProt Q99504 1-573, looked up, variant Y77A)
Protein phosphatase EYA3: B2 Protein phosphatase EYA3 with Y77A, A88T
B7: EYA3 K75: EYA3, K75 to alanine (protein, UniProt Q99504 1-573, looked up, variant K75A)
Protein phosphatase EYA3: B2 Protein phosphatase EYA3 with K75A, A88T
B8: EYA3 L81: EYA3, L81 to alanine (protein, UniProt Q99504 1-573, looked up, variant L81A)
Protein phosphatase EYA3: B2 Protein phosphatase EYA3 with L81A, A88T
B9: EYA3 P91: EYA3, P91 to alanine (protein, UniProt Q99504 1-573, looked up, variant P91A)
Protein phosphatase EYA3: B2 Protein phosphatase EYA3 with A88T, P91A
B10: ZDS1 S864: ZDS1, S864 to alanine (protein, UniProt P50111 1-915, looked up, variant S864A)
Protein ZDS1: MSNRDNESMLRTTSSDKAIASQRDKRKSEVLIAAQSLDNEIRSVKNLKRLSIGSMDLLIDPELDIKFGGESSGRRSWSGTTSSSASMPSDTTTVNNTRYSDPTPLENLHGRGNSGIESSNKTKQGNYLGIKKGVHSPSRKLNANVLKKNLLWVPANQHPNVKPDNFLELVQDTLQNIQLSDNGEDNDGNSNENNDIEDNGEDKESQSYENKENNTINLNRGLSRHGNASLIRRPSTLRRSYTEFDDNEDDDNKGDSASETVNKVEERISKIKERPVSLRDITEELTKISNSAGLTDNDAITLARTLSMAGSYSDKKDQPQPEGHYDEGDIGFSTSQANTLDDGEFASNMPINNTMTWPERSSLRRSRFNTYRIRSQEQEKEVEQSVDEMKNDDEERLKLTKNTIKVEIDPHKSPFRQQDEDSENMSSPGSIGDFQDIYNHYRQSSGEWEQEMGIEKEAEEVPVKVRNDTVEQDLELREGTTDMVKPSATDDNKETKRHRRRNGWTWLNNKMSREDDNEENQGDDENEENVDSQRMELDNSKKHYISLFNGGEKTEVSNKEEMNNSSTSTATSQTRQKIEKTFANLFRRKPHHKHDASSSPSSSPSSSPSIPNNDAVHVRVRKSKKLGNKSGREPVEPIVLRNRPRPHRHHHSRHGSQKISVKTLKDSQPQQQIPLQPQLEGAIEIEKKEESDSESLPQLQPAVSVSSTKSNSRDREEEEAKKKNKKRSNTTEISNQQHSKHVQKENTDEQKAQLQAPAQEQVQTSVPVQASAPVQNSAPVQTSAPVEASAQTQAPAAPPLKHTSILPPRKLTFADVKKPDKPNSPVQFTDSAFGFPLPLLTVSTVIMFDHRLPINVERAIYRLAHLKLSNSKRGLREQVLLSNFMYAYLNLVNHTLYMEQVAHDKEQQQQQQQQP
B11: ZDS1 S882: ZDS1, S882 to alanine (protein, UniProt P50111 1-915, looked up, variant S882A)
Protein ZDS1: B10 Protein ZDS1 with A864S, S882A
B12: ZDS1 S871: ZDS1, S871 to alanine (protein, UniProt P50111 1-915, looked up, variant S871A)
Protein ZDS1: B10 Protein ZDS1 with A864S, S871A
B13: ZDS1 L881: ZDS1, L881 to alanine (protein, UniProt P50111 1-915, looked up, variant L881A)
Protein ZDS1: B10 Protein ZDS1 with A864S, L881A
B14: ZDS1 L868: ZDS1, L868 to alanine (protein, UniProt P50111 1-915, looked up, variant L868A)
Protein ZDS1: B10 Protein ZDS1 with A864S, L868A
B15: ZDS1 K872: ZDS1, K872 to alanine (protein, UniProt P50111 1-915, looked up, variant K872A)
Protein ZDS1: B10 Protein ZDS1 with A864S, K872A
B16: ZDS1 R876: ZDS1, R876 to alanine (protein, UniProt P50111 1-915, looked up, variant R876A)
Protein ZDS1: B10 Protein ZDS1 with A864S, R876A
B17: ZDS1 Q878: ZDS1, Q878 to alanine (protein, UniProt P50111 1-915, looked up, variant Q878A)
Protein ZDS1: B10 Protein ZDS1 with A864S, Q878A
B18: ZDS1 S869: ZDS1, S869 to alanine (protein, UniProt P50111 1-915, looked up, variant S869A)
Protein ZDS1: B10 Protein ZDS1 with A864S, S869A
B19: ZDS1 Y861: ZDS1, Y861 to alanine (protein, UniProt P50111 1-915, looked up, variant Y861A)
Protein ZDS1: B10 Protein ZDS1 with Y861A, A864S
B20: ZDS1 V879: ZDS1, V879 to alanine (protein, UniProt P50111 1-915, looked up, variant V879A)
Protein ZDS1: B10 Protein ZDS1 with A864S, V879A
B21: ZDS1 E877: ZDS1, E877 to alanine (protein, UniProt P50111 1-915, looked up, variant E877A)
Protein ZDS1: B10 Protein ZDS1 with A864S, E877A
B22: ZDS1 R862: ZDS1, R862 to alanine (protein, UniProt P50111 1-915, looked up, variant R862A)
Protein ZDS1: B10 Protein ZDS1 with R862A, A864S
B23: ZDS1 R858: ZDS1, R858 to alanine (protein, UniProt P50111 1-915, looked up, variant R858A)
Protein ZDS1: B10 Protein ZDS1 with R858A, A864S
B24: ZDS1 H865: ZDS1, H865 to alanine (protein, UniProt P50111 1-915, looked up, variant H865A)
Protein ZDS1: B10 Protein ZDS1 with A864S, H865A
B25: ZDS1 I860: ZDS1, I860 to alanine (protein, UniProt P50111 1-915, looked up, variant I860A)
Protein ZDS1: B10 Protein ZDS1 with I860A, A864S
B26: ZDS1 G874: ZDS1, G874 to alanine (protein, UniProt P50111 1-915, looked up, variant G874A)
Protein ZDS1: B10 Protein ZDS1 with A864S, G874A
B27: ZDS1 N870: ZDS1, N870 to alanine (protein, UniProt P50111 1-915, looked up, variant N870A)
Protein ZDS1: B10 Protein ZDS1 with A864S, N870A
B28: ZDS1 L880: ZDS1, L880 to alanine (protein, UniProt P50111 1-915, looked up, variant L880A)
Protein ZDS1: B10 Protein ZDS1 with A864S, L880A
B29: ZDS1 K867: ZDS1, K867 to alanine (protein, UniProt P50111 1-915, looked up, variant K867A)
Protein ZDS1: B10 Protein ZDS1 with A864S, K867A
B30: ZDS1 L875: ZDS1, L875 to alanine (protein, UniProt P50111 1-915, looked up, variant L875A)
Protein ZDS1: B10 Protein ZDS1 with A864S, L875A
B31: ZDS1 L866: ZDS1, L866 to alanine (protein, UniProt P50111 1-915, looked up, variant L866A)
Protein ZDS1: B10 Protein ZDS1 with A864S, L866A
B32: ZDS1 R873: ZDS1, R873 to alanine (protein, UniProt P50111 1-915, looked up, variant R873A)
Protein ZDS1: B10 Protein ZDS1 with A864S, R873A

These molecules were tested on PP2A-B55α (assay: Single alanine mutational scan, YFP-tagged interactors immunoprecipitated from HeLa cells, Western blot). Details: single alanine mutant of YFP-tagged AMOTL2.
Type: binding, human
In the case of B1, the Experimental % binding is reported as 110%.

Same assay, conditions: single alanine mutant of YFP-tagged EYA3
B2 was tested, and the Experimental % binding was 1%.
B3 showed an Experimental % binding of 5%.
B4 was tested, and the Experimental % binding was 10%.
For B5, the Experimental % binding was 5%.
With B6 the Experimental % binding was 20%.
B7 gave an Experimental % binding of 45%.
B8 gave an Experimental % binding of 20%.
Molecule B9 has an Experimental % binding of 5%.

Same assay, conditions: single alanine mutant of YFP-tagged ZDS1
B10 was tested, and the Experimental % binding was 113%.
With B11 the Experimental % binding was 98%.
Work on B12 yielded an Experimental % binding of 102%.
B13 was tested, and the Experimental % binding was 11%.
B14 gave an Experimental % binding of 56%.
Molecule B15 has an Experimental % binding of 23%.
Molecule B16 has an Experimental % binding of 0%.
For B17, the Experimental % binding was 13%.
Molecule B18 has an Experimental % binding of 77%.
For B19, the Experimental % binding was 42%.
For B20, the Experimental % binding was 2%.
With B21 the Experimental % binding was 0%.
In the case of B22, the Experimental % binding is reported as 32%.
With B23 the Experimental % binding was 75%.
Molecule B24 has an Experimental % binding of 75%.
B25 gave an Experimental % binding of 60%.
B26 gave an Experimental % binding of 80%.
For B27, the Experimental % binding was 49%.
Molecule B28 has an Experimental % binding of 0%.
For B29, the Experimental % binding was 15%.
In the case of B30, the Experimental % binding is reported as 0%.
For B31, the Experimental % binding was 52%.
In the case of B32, the Experimental % binding is reported as 15%.
